From patent US20150004637A1, “SYSTEMS AND METHODS FOR IMAGING AT HIGH SPATIAL AND/OR TEMPORAL PRECISION” (President and Fellows of Harvard College, priority 2011, published 2015)

Legend:
HEK cells = assay: Frequency response and noise of membrane potential estimated from fluorescence; type: cell-based; conditions: for noise / accuracy of voltage estimated from fluorescence: HEK cells, after calibration with voltage ramp −150 to +150 mV; for Noise in V̂FL: frequencies f≧0.1 Hz in HEK cells
Description: For the data of FIG. 9, a chirped sine wave with an amplitude of about 50 mV and frequency from about 1 Hz to about 1 kHz was applied to the cell. Membrane potential VFL was determined from fluorescence and the Fourier transform of VFL was calculated. The uptick at about 1 kHz is an artifact of electronic compensation circuitry. […] The noise figures reported here are specific to our imaging system and serve primarily as an indicator of the possible sensitivity of Arch.
(8) Frequency-dependent response functions of Arch WT and D95N. Test waveforms consisted of a concatenated series of sine waves, each of duration 2 s, amplitude 100 mV, zero mean, and frequencies uniformly spaced on a logarithmic scale between 1 Hz and 1 kHz (31 frequencies total). The waveforms were discretized at 10 kHz and applied to the cell, while fluorescence movies were acquired at a frame rate of 2 kHz.
The model parameters for extracting VFL(t) were calculated from the fluorescence response to low frequency voltages. These parameters were then used to calculate an estimated voltage at all frequencies.
The applied voltage was downsampled to 2 kHz to mimic the response of a voltage indicator with instantaneous response. For each applied frequency, the Fourier transform of VFL(t) was calculated and divided by the Fourier transform of the downsampled V(t). The amplitude of this ratio determined the response sensitivity. It was important in some cases to properly compensate pipette resistance and cell membrane capacitance to obtain accurate response spectra.
The power spectrum of VFL(t) under constant V=0 was also measured to enable calculations of signal-to-noise ratio for any applied V(t).
In these examples, a measure of the performance of a voltage indicator which reported the information content of the fluorescence signal was used, including an algorithm to infer membrane potential from a series of fluorescence images. The accuracy with which the estimated membrane potential matched the true membrane potential was used (as reported by patch clamp recording) as a measure of indicator performance.
The estimated membrane potential, VFL(t), was determined from the fluorescence in two steps. First a model was trained relating membrane potential to fluorescence at each pixel. A highly simplified model that the fluorescence signal, Si(t), at pixel i and time t, is given by: […]

[1] = system: cultured mouse hippocampal neurons; assay: Optopatch: optical stimulation and recording in neurons; type: cell-based; conditions: red light 230 W/cm^2, 640 nm
Excerpt: In another example, a genetic construct termed “Optopatch” was used to provide simultaneous optical stimulation and recording from neurons. One embodiment of the Optopatch construct consisted of a bicistronic vector for co-expression of channelrhopsin 64 (ChR64)-mOrange II and archaerhodopsin 3 (Arch)-eGFP. This construct is depicted in FIG. 18A. The abbreviations used in the figure may be interpreted as follows. ss: Signaling sequence designed to improve the trafficking of Arch to the plasma membrane; Arch: Archaerhodopsin 3; eGFP: Enhanced green fluorescent protein; ER2: Endoplasmic reticulum export motif, designed to improve the trafficking of Arch to the plasma membrane; P2A: porcine teschovirus-1 2A sequence, a ribosomal skip-site leading to expression of two proteins from a single mRNA transcript; ChR64: Channelrhodopsin 64, a blue light-activated ion channel; mOr2: mOrange 2 fluorescent protein. […]
Whole-field illumination with pulses of blue light (20 mW/cm^2, 10 ms, 488 nm, repeated at 10 Hz) led to flashes of red fluorescence (em: 660-760 nm), detected on a high speed EMCCD camera. […] The optically-recorded fluorescence waveform coincided closely with the electrically recorded waveform on a single-trial basis (as shown in FIG. 18C), with a noise in the optically recorded voltage of 1.1 mV at a 1 kHz acquisition rate.

B1: Arch D95N: Archaerhodopsin 3 with aspartic acid 95 mutated to asparagine; non-pumping voltage indicator (protein, UniProt P96787 7-258, looked up, variant D95N)
Archaerhodopsin-3: QAGYDLLGDGRPETLWLGIGTLLMLIGTFYFLVRGWGVTDKDAREYYAVTILVPGIASAAYLSMFFGIGLTEVTVGGEMLDIYYARYANWLFTTPLLLLDLALLAKVDRVTIGTLVGVDALMIVTGLIGALSHTAIARYSWWLFSTICMIVVLYFLATSLRSAAKERGPEVASTFNTLTALVLVLWTAYPILWIIGTEGAGVVGLGIETLLFMVLDVTAKVGFGFILLRSRAILGDTEAPEPSAGADVSAAD
noise / accuracy of voltage estimated from fluorescence (HEK cells): 260 μV/(Hz)^1/2 | Noise in V̂FL (HEK cells): 260 μV/Hz^1/2

B2: Archaerhodopsin 3 (protein)
chain: MDPIALQAGYDLLGDGRPETLWLGIGTLLMLIGTFYFLVRGWGVTDKDAREYYAVTILVPGIASAAYLSMFFGIGLTEVTVGGEMLDIYYARYADWLFTTPLLLLDLALLAKVDRVTIGTLVGVDALMIVTGLIGALSHTAIARYSWWLFSTICMIVVLYFLATSLRSAAKERGPEVASTFNTLTALVLVLWTAYPILWIIGTEGAGVVGLGIETLLFMVLDVTAKVGFGFILLRSRAILGDTEAPEPSAGADVSAAD
modifications: Halorubrum sodomense
notes: Microbial rhodopsin from Halorubrum sodomense, light-driven proton pump used as fluorescent voltage indicator; experiments used an Arch-eGFP fusion
noise / accuracy of voltage estimated from fluorescence (HEK cells): about 625 μV/(Hz)^1/2 | Noise in V̂FL (HEK cells): 625 μV/Hz^1/2 | fluorescence oscillation amplitude retained relative to low-frequency amplitude (HEK cells; sinusoidal membrane potential, f≈1 kHz): about 55% | shot-noise limited noise floor in V̂FL (HEK cells; voltage clamp at constant V=0 mV, frequencies above about 10 Hz): about 470 μV/(Hz)^1/2 | outward photocurrent mediated by Arch ([1]; n=6 cells): 34±7 pA | hyperpolarization of cells by Arch photocurrent ([1]; n=8 cells): 6.1±1.1 mV
